Test results as given in PMC9046454.

How the values were obtained:
[1] = target: T1, nLuc-AFF (6*-50* duplication, 6-aa linker AAGASS) (UniProt P03069 226-281); test: fluorescence anisotropy
[2] = target: T1, nLuc-AFF (6*-50* duplication, 6-aa …); test: luminescence ratio L460/L520 titration
[3] = target: T1, nLuc-AFF (6*-50* duplication, 6-aa …); test: luminescence ratio L460/L520 titration; remark: listed apart in the source
[4] = target: T1, nLuc-AFF (6*-50* duplication, 6-aa …); test: luminescence switching

T1 sequence (P03069 226-281): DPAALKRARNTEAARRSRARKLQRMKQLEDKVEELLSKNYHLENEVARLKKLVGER

Binder | Kd [1] | Kd [2] | Kd [3] | binding result [4]
AP-1 duplex (dsDNA) DNA 1: AGTGGAGATGACTCATCTCGTGC DNA 2: GCACGAGATGAGTCATCTCCACT | 11.6 ± 2.5 nM | 37 ± 11 nM | 14.3 ± 3.5 nM | –
NC duplex (non-consensus) (dsDNA) DNA 1: GTTCCAGGTTAAGAAGTGCTCTCAGGGTGGCGCGGC DNA 2: GCCGCGCCACCCTGAGAGCACTTCTTAACCTGGAAC | – | – | – | no binding
